Test results published in paper PMC5797133.

How the values were obtained:
[1] = molecular target: short-chain dehydrogenase/reductase from Serratia marcescens BCRC 10948 (Serratia marcescens BCRC 10948); assay: SEC; size-exclusion chromatography of the purified SmSDR; single peak; conditions not given
[2] = molecular target: short-chain dehydrogenase/reductase from Serratia marcescens BCRC 10948 (Serratia marcescens BCRC 10948); assay: crystal structure; apo form, 1.47 Å, space group P4(1)2(1)2; sitting drop, 20 °C, 50 mM HEPES pH 7.0, 40% tacsimate pH 7.0, 2 mM spermine, 2 mM hexamine cobalt (III) chloride; homodimer AB in the asymmetric unit, tetramer by two-fold crystallographic symmetry

stoichiometry N [1]: 4 | stoichiometry N [2]: 4
Substance: short-chain dehydrogenase/reductase from Serratia marcescens BCRC 10948 (enzyme)
